Patent US20210107958A1, “GLYPICAN EPITOPES AND USES THEREOF” (MINOMIC INTERNATIONAL LTD., priority 2015, published 2021)

Legend:
Assay type in all cases: binding
glypican-1 [1] = target: T1, glypican-1 (Homo sapiens, UniProt P35052); test: MIL38 immunoprecipitation and western blot of plasma samples (normal and prostate cancer patient)
T1 construct: from tissue; host or cells: human plasma (patients 042 and 046), with or without heparinase treatment
T1 sequence (P35052 24-530 limits assumed): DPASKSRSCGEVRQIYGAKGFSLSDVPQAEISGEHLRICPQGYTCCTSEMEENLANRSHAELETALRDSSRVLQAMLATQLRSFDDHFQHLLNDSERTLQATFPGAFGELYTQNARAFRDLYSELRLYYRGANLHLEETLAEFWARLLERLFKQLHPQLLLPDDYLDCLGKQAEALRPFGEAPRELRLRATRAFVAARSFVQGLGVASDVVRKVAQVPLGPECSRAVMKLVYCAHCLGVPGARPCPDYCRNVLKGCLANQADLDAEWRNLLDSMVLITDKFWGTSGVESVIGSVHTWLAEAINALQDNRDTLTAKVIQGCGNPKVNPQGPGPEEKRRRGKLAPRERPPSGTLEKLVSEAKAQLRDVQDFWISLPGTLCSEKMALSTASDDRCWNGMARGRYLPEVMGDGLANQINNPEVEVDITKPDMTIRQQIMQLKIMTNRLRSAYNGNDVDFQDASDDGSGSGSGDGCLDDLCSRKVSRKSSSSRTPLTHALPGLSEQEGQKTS
From the text: Plasma samples from one normal patient (042) and one prostate cancer patient (046) were immunoprecipitated with MIL38 antibody and the IP sample western blotted with MIL38 and anti-GPC-1 antibodies (FIG. 16A).

human glypican-1 (GPC-1) = test: PEPSCAN-based ELISA on linear and CLIPS peptide arrays (sets 1-5) spanning GPC-1
From the text: The following human glypican-1 (GPC-1) sequence was used as a basis to generate a library of structured peptides.
To reconstruct discontinuous epitopes of the target molecule a library of structured peptides was synthesized. This was done using Chemically Linked Peptides on Scaffolds (CLIPS) technology. CLIPS technology allowed the generation of structured peptides in single loops, double-loops, triple loops, sheet-like folds, helix-like folds and combinations thereof. CLIPS templates were coupled to cysteine residues. The side-chains of multiple cysteines in the peptides were coupled to one or two CLIPS templates. For example, a 0.5 mM solution of the T2 CLIPS template 1,3-bis (bromomethyl) benzene was dissolved in ammonium bicarbonate (20 mM, pH 7.9)/acetonitrile (1:1(v/v)). This solution was added onto the peptide arrays. The CLIPS template bound to side-chains of two cysteines as present in the solid-phase bound peptides of the peptide-arrays (455 wells plate with 3 μl wells). The peptide arrays were gently shaken in the solution for 30 to 60 minutes while completely covered in solution. Finally, the peptide arrays were washed extensively with excess of H2O and sonicated in disrupt-buffer containing 1 percent SDS/0.1 percent beta-mercaptoethanol in PBS (pH 7.2) at 70° C. for 30 minutes, followed by sonication in H2O for another 45 minutes. The T3 CLIPS carrying peptides were made in a similar way but with three cysteines.
The binding of antibody to each of the synthesized peptides was tested in a PEPSCAN-based ELISA. The peptide arrays were incubated with primary antibody solution (overnight at 4° C.). […] After one hour, the color development was measured. The color development was quantified with a charge coupled device (CCD)-camera and an image processing system.
The values obtained from the CCD camera ranged from 0 to 3000 mAU, similar to a standard 96-well plate ELISA-reader. The results were quantified and stored in the Peplab database. […] The cards were manually inspected and any values caused by an air-bubble were scored as 0. […]

glypican-1 [2] = target: T2, glypican-1 (Homo sapiens, UniProt P35052); test: Immunoprecipitation and western blot of DU-145 or C3 (MIL38 negative) MPEK extracts
T2 construct: endogenous in cells; host or cells: DU-145 prostate cancer cells (membrane protein extract)
T2 sequence (P35052 24-558): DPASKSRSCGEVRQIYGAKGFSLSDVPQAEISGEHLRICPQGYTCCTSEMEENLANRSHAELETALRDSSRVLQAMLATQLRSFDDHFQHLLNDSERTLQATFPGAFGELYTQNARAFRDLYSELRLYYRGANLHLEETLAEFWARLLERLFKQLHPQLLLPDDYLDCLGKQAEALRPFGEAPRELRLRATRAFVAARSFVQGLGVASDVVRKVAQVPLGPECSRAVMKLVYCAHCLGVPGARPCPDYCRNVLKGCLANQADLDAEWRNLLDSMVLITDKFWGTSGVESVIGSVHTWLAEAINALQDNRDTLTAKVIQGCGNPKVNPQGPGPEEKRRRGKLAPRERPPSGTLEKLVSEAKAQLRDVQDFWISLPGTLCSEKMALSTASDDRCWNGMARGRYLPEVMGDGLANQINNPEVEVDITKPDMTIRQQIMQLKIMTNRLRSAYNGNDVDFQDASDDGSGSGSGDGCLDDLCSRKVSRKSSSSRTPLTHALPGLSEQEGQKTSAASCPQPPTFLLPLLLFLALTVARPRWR
From the text: MIL38 or rabbit anti-GPC-1 antibodies were used to immunoprecipitate their respective antigens from DU-145 or C3 (MIL38 negative) MPEK extracts. The immunoprecipitates (IPs) were western blotted with either MIL38 or anti-GPC-1 antibody (FIG. 15).
MIL38 and rabbit anti-GPC-1 antibodies were each used to immunoprecipitate their antigens from DU-145 prostate cancer or C3 (MIL38 negative) cell membrane protein extracts. Shown are the western blots of the immunoprecipitations detected with either MIL38 or anti-GPC-1 antibody. FIG. 15A depicts GPC1 detection of MIL38 immunoprecipitates (left) and MIL38 detection of GPC1 immunoprecipitates (right). FIG. 15B depicts MIL38 detection of MIL38 immunoprecipitates as a control. Lanes are: Magic Mark-commercial protein marker as control; DU145 MPEK-prostate cancer membrane protein extract (not immunoprecipitated); DU145 FT-prostate cancer flow through from immune precipitation; DU145 IP-immunoprecipitate using antibody; C3 MPEK-(MIL38 negative) control membrane protein extract (not immunoprecipitated); C3 FT-flow through from immune precipitation; C3 IP elution-(MIL38 negative) immunoprecipitate using antibody. MIL38 can detect the immunoprecipitate from rGPC1 antibody and vice versa. MIL38 can also bind to all controls including DU145 MPEK and to IP conducted by MIL38.

MIL38 antigen = target: T3, MIL38 antigen (Homo sapiens, UniProt P35052); test: Western blot of membrane protein extracts from normal prostate and prostate cancer; conditions: equivalent amounts of protein
T3 construct: tissue Novus Bio; host or cells: membrane protein extracts of normal prostate and prostate cancer
T3 sequence (P35052 24-558): T2 sequence (P35052 24-558)
From the text: To determine if MIL38 antigen could be detected in membrane protein extracts from normal prostate and prostate cancer, one sample of each was obtained from Novus Bio. Equivalent amounts of protein were western blotted using MIL38 antibody (FIG. 16B).

glypican-1 core protein = target: T4, glypican-1 core protein (Homo sapiens, UniProt P35052); test: 2D electrophoresis and western blotting of DU-145 MPEK extracts
T4 construct: endogenous in cells; host or cells: DU-145 prostate cancer cells (membrane protein extract)
T4 sequence (P35052 24-558): T2 sequence (P35052 24-558)
From the text: To confirm that MIL38 recognized glypican-1, prostate cancer DU-145 MPEK extracts were subjected to 2D electrophoresis and western blotting.
Membrane protein extracts (MPEK) of DU-145 prostate cancer cells were separated on 2D gel (pI gradient-horizontal, and molecular mass vertical). Western blots using MIL38 antibody and commercial rGPC-1 rabbit polyclonal antibodies show overlapping reactivity marking a 60Kd protein (circled in FIG. 14). Lane D (FIG. 14) is a one dimension separation for DU-145 extracts as a control. Lane M (FIG. 14) is a one dimension separation lane for molecular size markers as controls.

B1: MIL38-AM4: Murine anti human glypican 1 monoclonal antibody produced by hybridoma cells deposited at Cellbank Australia under accession number CBA20140026 (antibody)
heavy: QIQLVQSGPELKKPGETVKISCKASGYAFTDYSMNWVKQAPGKGLRWMGWINTETGEPTYTDDFKGRFAFSLETSASTAFLQINNLRNEDTATYFCARHYDYGGFPYWGQGTLVTVSAAKTTPPSVYPLAPGSAAQTNSMVTLGCLVKGYFPEPVTVTWNSGSLSSGVHTFPAVLQSDLYTLSSSVTVPSSTWPSETVTCNVAHPASSTKVDKKIVPRDCGCKPCICTVPEVSSVFIFPPKPKDVLTITLTPKVTCVVVDISKDDPEVQFSWFVDDVEVHTAQTQPREEQFNSTFRSVSELPIMHQDWLNGKEFKCRVNSAAFPAPIEKTISKTKGRPKAPQVYTIPPPKEQMAKDKVSLTCMITDFFPEDITVEWQWNGQPAENYKNTQPIMDTDGSYFVYSKLNVQKSNWEAGNTFTCSVLHEGLHNHHTEKSLSHSPGK
light: DIQMTQSPASLSASVGETVTITCRASGNVHNYLAWYQQKQGKSPQLLVYTAKTLADGVPSRFSGSGSGTQYSLKINSLQPEDFGTYYCQHFWSNPWTFGGGTKLEIKRADAAPTVSIFPPSSEQLTSGGASVVCFLNNFYPKDINVKWKIDGSERQNGVLNSWTDQDSKDSTYSMSSTLTLTKDEYERHNSYTCEATHKTSTSPIVKSFNRNEC
- specific bands detected in plasma immunoprecipitates (glypican-1 [1]; MIL38 IP of both plasma samples): approx. 70 kDa
- signal in prostate cancer patient plasma compared to normal patient plasma (glypican-1 [1]; patient 046 vs 042): markedly higher
- ELISA response versus antibody concentration (human glypican-1 (GPC-1); 1 μg/ml and 10 μg/ml, normal stringency): concentration dependent response
- saturation of ELISA signal (human glypican-1 (GPC-1); 10 μg/ml): saturation was not observed
- stretches / common cores of GPC-1 recognized on the peptide arrays (human glypican-1 (GPC-1); peptide sets 1-5 (linear, loop, helical, sheet)): 135TQNARAFRD143 (SEQ ID NO: 7) and 348[…]358 (SEQ ID NO: 2)
- depletion of MIL38 and anti-GPC-1 antigens by immunoprecipitation (glypican-1 [2]; DU-145 MPEK flow through): almost complete depletion
- reactive band detected in the other antibody's immunoprecipitate (glypican-1 [2]; DU-145 MPEK, IP with one antibody, blot with the other): 60 kDa
- expression of MIL38 antigen in prostate cancer extract versus normal prostate sample (MIL38 antigen): much higher
- molecular weight of protein detected (glypican-1 core protein): 60 kDa
